According to publication PMC4330386 (Nucleic Acids Research, 2015):
Values belong to the binder of their own block, whether it stands above or below them.

B3: GST-Rad27 (natural protein, yeast, UniProt P26793 1-382, looked up)
chain: MGIKGLNAIISEHVPSAIRKSDIKSFFGRKVAIDASMSLYQFLIAVRQQDGGQLTNEAGETTSHLMGMFYRTLRMIDNGIKPCYVFDGKPPDLKSHELTKRSSRRVETEKKLAEATTELEKMKQERRLVKVSKEHNEEAQKLLGLMGIPYIIAPTEAEAQCAELAKKGKVYAAASEDMDTLCYRTPFLLRHLTFSEAKKEPIHEIDTELVLRGLDLTIEQFVDLCIMLGCDYCESIRGVGPVTALKLIKTHGSIEKIVEFIESGESNNTKWKIPEDWPYKQARMLFLDPEVIDGNEINLKWSPPKEKELIEYLCDDKKFSEERVKSGISRLKKGLKSGIQGRLDGFFQVVPKTKEQLAAAAKRAQENKKLNKNKNKVTKGRR

Columns and labels:
Assay in all cases: cell-based or functional assay
GST-Rad27 = molecular target: B3
[1] = molecular target: T1, Mus81_(Δ21–22) of Mus81_(Δ21–22)–Mms4_(Δ40N) (S. cerevisiae, UniProt Q04149 1-632, Δ21–22)
T1 sequence (looked up): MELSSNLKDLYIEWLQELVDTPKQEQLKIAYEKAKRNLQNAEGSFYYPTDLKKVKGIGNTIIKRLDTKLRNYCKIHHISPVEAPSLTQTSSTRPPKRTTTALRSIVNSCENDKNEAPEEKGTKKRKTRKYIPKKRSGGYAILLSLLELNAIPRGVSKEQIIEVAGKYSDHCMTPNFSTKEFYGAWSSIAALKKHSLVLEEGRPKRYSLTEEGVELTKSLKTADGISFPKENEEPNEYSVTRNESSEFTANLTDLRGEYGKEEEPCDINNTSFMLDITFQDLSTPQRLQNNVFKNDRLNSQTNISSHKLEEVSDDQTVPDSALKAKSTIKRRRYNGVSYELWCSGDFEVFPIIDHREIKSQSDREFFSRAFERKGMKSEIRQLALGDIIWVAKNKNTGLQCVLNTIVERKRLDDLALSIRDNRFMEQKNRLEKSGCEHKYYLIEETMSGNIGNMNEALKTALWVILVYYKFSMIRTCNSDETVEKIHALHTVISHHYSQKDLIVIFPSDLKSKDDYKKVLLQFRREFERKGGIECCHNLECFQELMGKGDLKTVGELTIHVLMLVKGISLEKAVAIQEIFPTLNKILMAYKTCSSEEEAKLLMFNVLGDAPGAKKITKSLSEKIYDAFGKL

[2] = molecular target: T2, Mus81_(Δ21–24) of Mus81_(Δ21–24)–Mms4_(Δ40N) (S. cerevisiae, UniProt Q04149 1-632, Δ21–24)
T2 sequence (looked up): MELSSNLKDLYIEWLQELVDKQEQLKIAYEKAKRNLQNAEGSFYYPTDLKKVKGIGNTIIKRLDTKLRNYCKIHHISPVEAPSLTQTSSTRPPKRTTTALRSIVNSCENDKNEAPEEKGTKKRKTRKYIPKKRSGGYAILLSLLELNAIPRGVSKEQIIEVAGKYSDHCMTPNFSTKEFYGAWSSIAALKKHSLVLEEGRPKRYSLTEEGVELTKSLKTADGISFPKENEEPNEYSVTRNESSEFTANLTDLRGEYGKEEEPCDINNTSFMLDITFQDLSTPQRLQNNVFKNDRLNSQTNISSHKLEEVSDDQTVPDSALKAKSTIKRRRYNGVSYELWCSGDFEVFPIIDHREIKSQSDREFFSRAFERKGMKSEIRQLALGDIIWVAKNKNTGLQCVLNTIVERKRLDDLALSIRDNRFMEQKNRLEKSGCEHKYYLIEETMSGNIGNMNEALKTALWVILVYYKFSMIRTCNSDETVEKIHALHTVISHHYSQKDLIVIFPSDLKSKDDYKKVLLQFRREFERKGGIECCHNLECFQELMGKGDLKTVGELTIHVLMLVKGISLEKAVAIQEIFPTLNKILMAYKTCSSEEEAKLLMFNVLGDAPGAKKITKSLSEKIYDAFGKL

stimulation of Rad27 (0.1 fmol) cleavage of 5′DF substrate by the Mus81–Mms4 complex (0, 25, 50 fmol; ∼2–4 fold told of the Mus81 complexes) (GST-Rad27): 2 to 4 fold
B1: Mms4 of the wild-type Mus81–Mms4 complex (natural protein, budding yeast, UniProt P38257 1-691, looked up)
chain: MSQIVDFVEDKDSRNDASIQIIDGPSNVEIIALSESMDQDECKRAHVSSAEMIPSSPQRKSVSNDVENVDLNKSIELSAPFFQDISISKLDDFSTTVNSIIDSSLRNENNAKGNAKKLLDDLISDEWSADLESSGKKHNKSQYNLRDIAEKWGVQSLKNPEPIAVDCEYKTQGIGKTNSDISDSPKSQIGAADILFDFPLSPVKHENPTEEKHNSIANENSSPDNSLKPAGKQNHGEDGTSMAKRVYNKGEDEQEHLPKGKKRTIALSRTLINSTKLPDTVELNLSKFLDSSDSITTDVLSTPAKGSNIVRTGSQPIFSNANCFQEAKRSKTLTAEDPKCTKNTAREVSQLENYIAYGQYYTREDSKNKIRHLLKENKNAFKRVNQIYRDNIKARSQMIIEFSPSLLQLFKKGDSDLQQQLAPAVVQSSYNDSMPLLRFLRKCDSIYDFSNDFYYPCDPKIVEENVLILYYDAQEFFEQYTSQKKELYRKIRFFSKNGKHVILILSDINKLKRAIFQLENEKYKARVEQRLSGTEEALRPRSKKSSQVGKLGIKKFDLEQRLRFIDREWHVKIHTVNSHMEFINSLPNLVSLIGKQRMDPAIRYMKYAHLNVKSAQDSTETLKKTFHQIGRMPEMKANNVVSLYPSFQSLLEDIEKGRLQSDNEGKYLMTEAVEKRLYKLFTCTDPNDTIE

stimulation of Rad27 (0.1 fmol) cleavage of 5′DF substrate by the Mus81–Mms4_(Δ40N) and Mus81_(Δ120N)–Mms4_(Δ40N) complexes (0, 25, 50 fmol; ∼2–4 fold told of the Mus81 complexes) (GST-Rad27): 2 to 4 fold
B2: Mms4_(Δ40N) (domain or fragment, budding yeast, UniProt P38257 41-691, looked up)
chain: ECKRAHVSSAEMIPSSPQRKSVSNDVENVDLNKSIELSAPFFQDISISKLDDFSTTVNSIIDSSLRNENNAKGNAKKLLDDLISDEWSADLESSGKKHNKSQYNLRDIAEKWGVQSLKNPEPIAVDCEYKTQGIGKTNSDISDSPKSQIGAADILFDFPLSPVKHENPTEEKHNSIANENSSPDNSLKPAGKQNHGEDGTSMAKRVYNKGEDEQEHLPKGKKRTIALSRTLINSTKLPDTVELNLSKFLDSSDSITTDVLSTPAKGSNIVRTGSQPIFSNANCFQEAKRSKTLTAEDPKCTKNTAREVSQLENYIAYGQYYTREDSKNKIRHLLKENKNAFKRVNQIYRDNIKARSQMIIEFSPSLLQLFKKGDSDLQQQLAPAVVQSSYNDSMPLLRFLRKCDSIYDFSNDFYYPCDPKIVEENVLILYYDAQEFFEQYTSQKKELYRKIRFFSKNGKHVILILSDINKLKRAIFQLENEKYKARVEQRLSGTEEALRPRSKKSSQVGKLGIKKFDLEQRLRFIDREWHVKIHTVNSHMEFINSLPNLVSLIGKQRMDPAIRYMKYAHLNVKSAQDSTETLKKTFHQIGRMPEMKANNVVSLYPSFQSLLEDIEKGRLQSDNEGKYLMTEAVEKRLYKLFTCTDPNDTIE

Binder: B3
extent of stimulation by Rad27 of the endonuclease activity of Mus81_(Δ21–22)–Mms4_(Δ40N) on 3′F substrate, over increasing amounts of Rad27 (∼5–12-fold) [1]: ~12 fold
extent of stimulation by Rad27 of the endonuclease activity of Mus81_(Δ21–24)–Mms4_(Δ40N) on 3′F substrate, over increasing amounts of Rad27 (∼3–6-fold) [2]: ~6 fold
